In patent publication US20180194839A1 (Novartis, published 2018):

T1: recombinant mouse IL-17A (SEQ ID NO: 83) (mouse, UniProt Q62386 26-158)
T1 sequence: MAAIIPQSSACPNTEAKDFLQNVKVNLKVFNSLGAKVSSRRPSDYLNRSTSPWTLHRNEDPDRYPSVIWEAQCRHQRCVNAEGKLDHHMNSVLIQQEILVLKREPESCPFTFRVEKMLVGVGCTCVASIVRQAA

T2: recombinant rat IL-17A (SEQ ID NO: 85) (rat, UniProt Q61453 18-150)
T2 construct: also called rratIL-17A; rIL-17A
T2 sequence: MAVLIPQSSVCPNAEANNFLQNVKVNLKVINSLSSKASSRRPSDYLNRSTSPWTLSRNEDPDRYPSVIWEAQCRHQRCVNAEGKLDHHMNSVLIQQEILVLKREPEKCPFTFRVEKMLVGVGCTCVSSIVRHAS

T3: recombinant human IL-17A (SEQ ID NO: 76) (human, UniProt Q16552 24-155, limits assumed)
T3 construct: homodimer; also called huIL-17A; rhuIL-17A
T3 sequence: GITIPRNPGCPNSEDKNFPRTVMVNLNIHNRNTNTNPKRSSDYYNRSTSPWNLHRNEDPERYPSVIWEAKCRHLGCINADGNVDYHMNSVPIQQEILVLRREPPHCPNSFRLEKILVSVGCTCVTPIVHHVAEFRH

T4: recombinant human IL-17C (R&D Systems Cat#1234IL/CF) (human, UniProt Q9P0M4 19-197)
T4 construct: also called huIL-17C; hu IL-17C
T4 sequence (looked up): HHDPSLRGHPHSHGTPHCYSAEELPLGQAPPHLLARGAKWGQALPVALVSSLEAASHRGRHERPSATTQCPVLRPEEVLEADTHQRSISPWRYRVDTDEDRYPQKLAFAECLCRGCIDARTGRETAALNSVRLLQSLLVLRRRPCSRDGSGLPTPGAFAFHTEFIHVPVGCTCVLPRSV

T5: recombinant mouse IL-17A/F (R&D Systems Cat#5390-IL) (mouse, UniProt Q62386 26-158; Q7TNI7 29-161, limits assumed)
T5 construct: bought heterodimer; also called mIL-17A/F; rmIL-17A/F
T5 sequence (looked up) 1: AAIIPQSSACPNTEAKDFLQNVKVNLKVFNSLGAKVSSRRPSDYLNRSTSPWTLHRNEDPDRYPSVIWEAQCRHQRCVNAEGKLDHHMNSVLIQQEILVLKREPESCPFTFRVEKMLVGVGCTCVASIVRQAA
T5 sequence (looked up) 2: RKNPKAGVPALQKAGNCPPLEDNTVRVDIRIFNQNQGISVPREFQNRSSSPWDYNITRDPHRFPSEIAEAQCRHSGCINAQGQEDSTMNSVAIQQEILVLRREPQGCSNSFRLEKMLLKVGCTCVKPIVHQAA

T6: recombinant human IL-17E (R&D Systems Cat#1258-IL/CF) (human, UniProt Q9H293 33-177)
T6 construct: also called huIL-17E; hu IL-17E
T6 sequence (looked up): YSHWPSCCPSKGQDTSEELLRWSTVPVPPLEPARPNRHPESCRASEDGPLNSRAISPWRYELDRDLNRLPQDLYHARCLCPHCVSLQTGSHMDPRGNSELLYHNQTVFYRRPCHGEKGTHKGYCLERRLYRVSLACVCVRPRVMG

T7: recombinant mouse IL-17F (SEQ ID NO: 84) (mouse, UniProt Q7TNI7 29-161)
T7 construct: also called mIL-17F; rmIL-17F
T7 sequence: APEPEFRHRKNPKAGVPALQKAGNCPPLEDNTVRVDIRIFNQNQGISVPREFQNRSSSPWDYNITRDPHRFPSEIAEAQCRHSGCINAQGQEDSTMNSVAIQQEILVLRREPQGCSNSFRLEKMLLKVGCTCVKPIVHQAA

T8: recombinant human IL-17D (R&D Systems Cat#1504IL/CF) (human, UniProt Q8TAD2 18-202, limits assumed)
T8 construct: also called huIL-17D; hu IL-17D
T8 sequence (looked up): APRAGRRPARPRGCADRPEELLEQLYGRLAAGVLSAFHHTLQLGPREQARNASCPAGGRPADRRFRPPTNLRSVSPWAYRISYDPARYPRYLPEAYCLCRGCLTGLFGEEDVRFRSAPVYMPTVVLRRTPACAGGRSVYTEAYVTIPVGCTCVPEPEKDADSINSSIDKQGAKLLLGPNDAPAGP

T9: recombinant human IL-17A/F heterodimer (human, UniProt Q16552 24-155; Q96PD4 31-163, limits assumed)
T9 sequence (looked up) 1: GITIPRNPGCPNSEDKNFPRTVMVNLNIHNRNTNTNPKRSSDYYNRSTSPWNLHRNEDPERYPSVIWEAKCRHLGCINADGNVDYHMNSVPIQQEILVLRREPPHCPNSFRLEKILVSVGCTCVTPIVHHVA
T9 sequence (looked up) 2: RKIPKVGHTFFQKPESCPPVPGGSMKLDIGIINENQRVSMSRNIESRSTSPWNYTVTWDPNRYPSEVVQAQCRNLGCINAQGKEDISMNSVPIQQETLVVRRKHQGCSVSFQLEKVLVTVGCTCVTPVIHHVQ

T10: recombinant human IL-17F (SEQ ID NO: 77) (human, UniProt Q96PD4 31-163)
T10 sequence: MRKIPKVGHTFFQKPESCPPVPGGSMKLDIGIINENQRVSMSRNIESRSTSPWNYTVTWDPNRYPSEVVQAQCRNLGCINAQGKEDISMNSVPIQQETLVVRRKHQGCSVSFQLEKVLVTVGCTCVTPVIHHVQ


Key:
[1] = biological target: T1, recombinant mouse IL-17A (SEQ ID NO: 83); test: cell-based or functional assay
[2] = biological target: T2, recombinant rat IL-17A (SEQ ID NO: 85); test: ELISA, coated cytokine, Ab 10 µg/ml
Description: The antibodies of the disclosure were added at 10 μg/ml (100 μl/well) for 3 h at room temperature. […] They were added at 1 or 5 μg/ml, in PBS, 0.02% NaN₃ for 3 h at RT.
Plates were then washed 4 times with PBS/0.05% Tween 20/0.02% NaN₃. Then, an alkaline phosphatase-conjugated goat anti-human IgG antibody (Sigma Cat# A9544) was added to the wells with human antibodies at a dilution of 1/20000 (100 μl/well). An alkaline phosphatase-conjugated goat anti-mouse IgG antibody (Sigma Cat# A1047) was added to the wells with mouse antibodies at a dilution of 1/10000 (100 μl/well). An alkaline phosphatase-conjugated rabbit anti-goat IgG antibody (Sigma Cat# A7650) was added to the wells with goat antibodies at a dilution of 1/1000 (100 μl/well) and an alkaline phosphatase-conjugated rabbit anti rat-IgG antibody (Sigma Cat# A6066) was added to the wells with rat antibodies at a dilution of 1/20000 (100 μl/well).

[3] = biological target: T3, recombinant human IL-17A (SEQ ID NO: 76); test: ELISA, coated antigen, Ab 1 µg/ml
Description: (§1) A titration of the antibodies of interest on different antigens was carried out.
(§2) Plates were then washed 4 times with PBS/0.05% Tween 20 (Sigma Cat# P7949)/0.02% NaN₃.
(§3) Plates were then washed 4 times with PBS/0.05% Tween 20/0.02% NaN₃. Then, an alkaline phosphatase-conjugated goat anti-human IgG antibody (Sigma Cat# A9544) was added to the wells that received test antibody at a dilution of 1/20000 (100 μl/well) for 2 h 30 min at RT. To the wells, that received mouse mAb, an alkaline phosphatase-conjugated goat anti-mouse IgG antibody (Sigma Cat# A7434) was added at a dilution of 1/10000 (100 μl/well) for 2 h 30 min at RT. An alkaline phosphatase conjugated mouse anti goat IgG antibody (Sigma Cat# A8062) was added to the goat antibodies at a dilution of 1/50000 (100 μl/well) for 2 h 30 min at RT. Plates were then washed 4 times and 100 μl of the substrate (p-nitrophenyl phosphate tablets; Sigma; 5 mg Cat#N9389; 20 mg Cat#. N2765) dissolved in diethanolamine buffer pH 9.8, to give a final concentration of 1 mg/ml, were added to each well.

[4] = biological target: T4, recombinant human IL-17C (R&D Systems …); test: ELISA, coated antigen, Ab 1 µg/ml
Description: as §1, §2, §3

[5] = biological target: T5, recombinant mouse IL-17A/F (R&D Systems …); test: ELISA, coated antigen, Ab 1 µg/ml
Description: as §1, §2, §3

[6] = biological target: T6, recombinant human IL-17E (R&D Systems …); test: ELISA, coated antigen, Ab 1 µg/ml
Description: as §1, §2, §3

[7] = biological target: T1, recombinant mouse IL-17A (SEQ ID NO: 83); test: ELISA, coated antigen, Ab 1 µg/ml
Description: as §1, §2, §3

[8] = biological target: T7, recombinant mouse IL-17F (SEQ ID NO: 84); test: ELISA, coated antigen, Ab 1 µg/ml
Description: as §1, §2, §3

[9] = biological target: T8, recombinant human IL-17D (R&D Systems …); test: ELISA, coated antigen, Ab 1 µg/ml
Description: as §1, §2, §3

[10] = biological target: T9, recombinant human IL-17A/F heterodimer; test: cell-based or functional assay
[11] = biological target: T3, recombinant human IL-17A (SEQ ID NO: 76); test: cell-based or functional assay
[12] = biological target: T10, recombinant human IL-17F (SEQ ID NO: 77); test: cell-based or functional assay
[13] = biological target: T3, recombinant human IL-17A (SEQ ID NO: 76); test: cell-based or functional assay; remark: listed apart in the source

Binder	IC50, KC secretion by CMT-93 cells; stimulus mIL-17A (0.15 nM) [1]	O.D. [2]	O.D. [3]	O.D. [4]	O.D. [5]	O.D. [6]	O.D. [7]	O.D. [8]	O.D. [9]	IC50, huIL-6 secretion by BJ cells; stimulus rhuIL-17A/F (300 pM) + rhuTNF-α (6 pM) [10]	IC50, huIL-6 secretion by BJ cells; stimulus rhuIL-17A/F (3 nM) [10]	IC50, huIL-6 secretion by BJ cells; stimulus rhuIL-17A (1 nM) [11]	IC50, huIL-6 secretion by BJ cells; stimulus rhuIL-17F (10 nM) + rhuTNF-α (6 pM) [12]	IC50, huIL-6 secretion by BJ cells; stimulus rhuIL-17F (30 nM) [12]	IC50, huGROα secretion by BJ cells; stimulus rhuIL-17A (0.5 nM) [13]	IC50, huIL-6 secretion by BJ cells; stimulus rhuIL-17A (30 pM) + rhuTNF-α (6 pM) [11]
XAB4 (antibody, human IgG1, kappa, V domains shown, also called MB435 N56Q) VH: EVQLVESGGDLVQPGGSLRLSCAASGFTFSSYWMSWVRQAPGKGLEWVANIKQDGSEKYYVDSVKGRFTISRDNAKNSLYLQMNSLRAEDTAVYYCARDRGSLYYWGQGTLVTVSS VL: AIQLTQSPSSLSASVGDRVTITCRPSQGINWELAWYQQKPGKAPKLLIYDASSLEQGVPSRFSGSGSGTDFTLTISSLQPEDFATYYCQQFNSYPLTFGGGTKVEIKR	7 nM	3.48 O.D.	2.47 O.D.	0.036 O.D.	2.26 O.D.	0.035 O.D.	1.58 O.D.	0.098 O.D.	0.034 O.D.	0.17 nM	1.68 nM	0.63 nM	> 3 µM	> 3000 nM	0.44 nM	–
XAB1 (antibody, human IgG1, kappa, V domains shown, human IgG1/kappa monoclonal antibody; also called parental XAB1; XAB1 IgG) VH: EVQLVESGGDLVQPGGSLRLSCAASGFTFSSYWMSWVRQAPGKGLEWVANIKQDGSEKYYVDSVKGRFTISRDNAKNSLYLQMNSLRAEDTAVYYCARDRGSLYYWGQGTLVTVSS VL: AIQLTQSPSSLSASVGDRVTITCRPSQGIISALAWYQQKPGKAPKLLIYDASSLENGVPSRFSGSGSGTDFTLTISSLQPEDFATYYCQQFNSYPLTFGGGTKVEIKR	128 nM	1.2 O.D.	1.3 O.D.	0.032 O.D.	1.76 O.D.	0.033 O.D.	1.44 O.D.	0.044 O.D.	0.031 O.D.	3.83 nM	–	–	> 3 µM	–	1.39 nM	0.47 nM
